US20120027679A1 (CANON, published 2012)
Blank lines part the entries; values can stand above or below the binder they belong to. Where no end group is shown, it is not given here. Side-chain parts run from the residue outwards. maleimide = maleimide group (reactive functional group for coupling a ligand); EO 2 kDa = ethylene oxide linker of molecular weight 2000

What was measured:
[1] = molecular target: T1, HER2 (epidermal growth factor receptor 2) on N87 cells (UniProt P04626 23-1255, limits assumed); experiment: saturation binding to N87 cells, Scatchard plot, apparent Kd
T1 construct: whole, on cells; N87 cells are used as HER2-positive cells; also called HER2-positive cells (N87); HER2-expressing cells
Method: (§1) Each particle was evaluated for its binding capability to HER2-expressing cells. On the day before evaluation, HER2-positive cells (N87 cells) were seeded over a 24-well plate (5×10⁵ cells/well). Next day, after medium removal, 200 μL of a growth medium was placed therein, and the particle sample was then added to each well. The plate was left standing in a CO₂ incubator at 37° C. for 4 hours. Then, the medium containing the particle was removed. The wells were fully washed twice with 1 mL of PBS. After removal of PBS, 1% Triton-X100/PBS solution was added at a concentration of 150 μL/well for cell lysis. The cells were incubated at room temperature for 2 hours or longer. Subsequently, concentrated hydrochloric acid (12 N) was added at a concentration of 150 μL/well, and the cells were incubated at room temperature for 2 hours or longer. The amount of iron in this acid lysate of the sample (6 N HCl solution, 300 μL) was measured to determine the concentration of the particle bound to the cell. A Scatchard plot was prepared from the saturation binding curve of the particle for N87, and an apparent equilibrium dissociation constant (Kd) of the particle for the cell was determined.
(§2) According to Example 8, a Scatchard plot was prepared from the saturation binding curve of each particle for N87 cells, and an apparent equilibrium dissociation constant (Kd) of the particle for the cell was determined.

[2] = molecular target: T1, HER2 (epidermal growth factor receptor …); experiment: saturation binding to N87 cells, Scatchard plot, apparent Kd; HBP2 particle
Method: as §1, with “Subsequently, concentrated hydrochloric acid (12 N) was added at a concentration of 150 μL/well, and the cells were incubated at room temperature for 2 hours or longer.” left out
as §2

[3] = molecular target: T1, HER2 (epidermal growth factor receptor …); experiment: saturation binding to N87 cells (cell-bound iron measured), Scatchard plot, apparent Kd
Method: as §1

[4] = molecular target: T2, Recombinant Human ErbB2/Fc Chimera (R&D Systems, Inc.) (human, UniProt P04626 23-652); experiment: SPR (Biacore X), ErbB2/Fc on CM-5 chip, Scatchard plot of Req, apparent Kd of the particle
T2 construct: Bought; Amine-coupled to a CM-5 chip, about 1000 to 2000 RU; also called HER2; antigen; Fc part of the bought chimera not given

[5] = molecular target: T1, HER2 (epidermal growth factor receptor …); experiment: saturation binding to N87 cells, Scatchard plot, apparent Kd; HBP1 particle
Method: as §1, with “Subsequently, concentrated hydrochloric acid (12 N) was added at a concentration of 150 μL/well, and the cells were incubated at room temperature for 2 hours or longer.” left out
as §2

[6] = molecular target: T1, HER2 (epidermal growth factor receptor …); experiment: saturation binding to N87 cells, Scatchard plot, apparent Kd; HBP3 particle
Method: as §1, with “Subsequently, concentrated hydrochloric acid (12 N) was added at a concentration of 150 μL/well, and the cells were incubated at room temperature for 2 hours or longer.” left out
as §2

- Kd [1]: 0.07 nM
Binder: MARSGLGGKGSC([maleimide-EO 2 kDa-iron oxide nanoparticle 200 nm]) (not fully specified) [HBP1-EO2k-NP-200: HER2-binding peptide-immobilized 200-nm particle with ethylene oxide linker of molecular weight 2000, listing 1 of 4 here]

- Kd [2]: 0.43 nM
Binder: MARSGLGGKGSC([maleimide-PEG 300-iron oxide nanoparticle 200 nm]) (not fully specified) [HBP2-EO-NP-200: HER2-binding peptide-immobilized 200-nm particle containing an iron oxide particle]

- Kd [3]: 78 nM
- Kd [4]: 36.7 nM
Binder: MARSGLGGKGSC([maleimide-PEG 300-iron oxide nanoparticle 20 nm]) (not fully specified) [HBP-EO-NP-20: HER2-binding peptide-immobilized 20-nm particle containing an iron oxide particle]

- Kd [5]: 0.67 nM
Binder: MARSGLGGKGSC([maleimide-PEG 300-iron oxide nanoparticle 200 nm]) (not fully specified) [HBP1-EO-NP-200: HER2-binding peptide-immobilized 200-nm particle containing an iron oxide particle]

- Kd [1]: 0.08 nM
Binder: MARSGLGGKGSC([maleimide-EO 2 kDa-iron oxide nanoparticle 200 nm]) (not fully specified) [HBP3-EO2k-NP-200: HER2-binding peptide-immobilized 200-nm particle with ethylene oxide linker of molecular weight 2000, listing 2 of 4 here]

- Kd [6]: 0.49 nM
Binder: MARSGLGGKGSC([maleimide-PEG 300-iron oxide nanoparticle 200 nm]) (not fully specified) [HBP3-EO-NP-200: HER2-binding peptide-immobilized 200-nm particle containing an iron oxide particle]

- Kd [1]: 0.11 nM
Binder: MARSGLGGKGSC([maleimide-EO 2 kDa-iron oxide nanoparticle 200 nm]) (not fully specified) [HBP4-EO2k-NP-200: HER2-binding peptide-immobilized 200-nm particle with ethylene oxide linker of molecular weight 2000, listing 3 of 4 here]

- Kd [1]: 0.09 nM
Binder: MARSGLGGKGSC([maleimide-EO 2 kDa-iron oxide nanoparticle 200 nm]) (not fully specified) [HBP2-EO2k-NP-200: HER2-binding peptide-immobilized 200-nm particle with ethylene oxide linker of molecular weight 2000, listing 4 of 4 here]
